According to patent publication US20030206925A1 (Pfizer, published 2003):

T1: measles virus nucleocapsid (N) protein, Edmonston wild-type (measles virus (Edmonston wild-type), UniProt P04851 1-525)
T1 sequence (looked up): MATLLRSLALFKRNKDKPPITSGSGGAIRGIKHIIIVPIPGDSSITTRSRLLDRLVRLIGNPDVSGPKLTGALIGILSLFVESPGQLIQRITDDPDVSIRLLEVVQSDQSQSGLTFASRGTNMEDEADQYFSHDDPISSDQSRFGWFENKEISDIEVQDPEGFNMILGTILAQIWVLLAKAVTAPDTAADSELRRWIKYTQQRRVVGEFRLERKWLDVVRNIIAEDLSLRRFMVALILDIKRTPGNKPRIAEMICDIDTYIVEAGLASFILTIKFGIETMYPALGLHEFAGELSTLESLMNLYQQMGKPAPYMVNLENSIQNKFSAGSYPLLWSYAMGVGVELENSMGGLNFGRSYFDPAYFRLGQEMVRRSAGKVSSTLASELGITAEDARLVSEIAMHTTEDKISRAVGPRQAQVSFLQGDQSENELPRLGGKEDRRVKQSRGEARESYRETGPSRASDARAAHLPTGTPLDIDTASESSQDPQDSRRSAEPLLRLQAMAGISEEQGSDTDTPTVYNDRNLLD

B1: measles virus V protein mutant haV-11 (deletion of amino acids 1-20 and 208-230) (other)
chain: MAYPYDVPDYAAEPIGSLAIEEAMAAWSEISDNPGQERATCREEKAGSSGLSKPCLSAIGSTEGGAPRIRGQGPGESDDDAETLGIPPRNLQASSTGLQCYYVYDHSGEAVKGIQDADSIMVQSGLDGDSTLSGGDNESENSDVDIGEPDTEGYAITDRGSAPISMGFRASDVETAEGGEIHELLRLQSRGNNFPKLEGHRREISLIWNGDRVFIDRWCNPMCSKVTLGTIRARCTCGECPRVCEQCRTDTGVDTRIWYHNLPEIPE
notes: Made in the pMV-haV-wt backbone by deletion mutagenesis
B2: measles virus V protein mutant haV-9 (deletion of amino acids 1-20) (other)
chain: MAYPYDVPDYAAEPIGSLAIEEAMAAWSEISDNPGQERATCREEKAGSSGLSKPCLSAIGSTEGGAPRIRGQGPGESDDDAETLGIPPRNLQASSTGLQCYYVYDHSGEAVKGIQDADSIMVQSGLDGDSTLSGGDNESENSDVDIGEPDTEGYAITDRGSAPISMGFRASDVETAEGGEIHELLRLQSRGNNFPKLEKTLNVPPPPDPGRASTSETPIKKGHRREISLIWNGDRVFIDRWCNPMCSKVTLGTIRARCTCGECPRVCEQCRTDTGVDTRIWYHNLPEIPE
notes: as for B1

Target: T1, measles virus nucleocapsid (N) protein, …
Assay: separate experiment, method not described, data not shown

Row | Binder | binding result
1 | B1 | no binding
2 | B2 | no binding
